B1: E3 ubiquitin-protein ligase NHLRC1 (Homo sapiens), Q6VVB1 (parent)
chain: MAAEASESGPALHELMREAEISLLECKVCFEKFGHRQQRRPRNLSCGHVVCLACVAALAHPRTLALECPFCRRACRGCDTSDCLPVLHLIELLGSALRQSPAAHRAAPSAPGALTCHHTFGGWGTLVNPTGLALCPKTGRVVVVHDGRRRVKIFDSGGGCAHQFGEKGDAAQDIRYPVDVTITNDCHVVVTDAGDRSIKVFDFFGQIKLVIGGQFSLPWGVETTPQNGIVVTDAEAGSLHLLDVDFAEGVLRRTERLQAHLCNPRGVAVSWLTGAIAVLEHPLALGTGVCSTRVKVFSSSMQLVGQVDTFGLSLYFPSKITASAVTFDHQGNVIVADTSGPAILCLGKPEEFPVPKPMVTHGLSHPVALTFTKENSLLVLDTASHSIKVYKVDWG
partner: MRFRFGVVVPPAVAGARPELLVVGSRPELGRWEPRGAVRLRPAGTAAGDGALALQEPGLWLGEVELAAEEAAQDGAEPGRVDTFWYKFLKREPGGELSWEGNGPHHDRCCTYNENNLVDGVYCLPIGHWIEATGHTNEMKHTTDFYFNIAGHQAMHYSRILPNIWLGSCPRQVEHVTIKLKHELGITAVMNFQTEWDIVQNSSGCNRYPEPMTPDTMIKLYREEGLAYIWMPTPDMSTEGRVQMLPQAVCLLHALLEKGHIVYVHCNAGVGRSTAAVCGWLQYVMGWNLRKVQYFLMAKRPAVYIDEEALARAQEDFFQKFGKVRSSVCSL

Variants of: B1
Details: with epm2a_human EPM2A

Variant | effect of a mutation on the interaction
Q302P | disrupting interaction
E280K | disrupting interaction

Variants of: B1
Details: with epm2a_human EPM2A
Remark: another data set of the same source

Variant | effect of a mutation on the interaction
Q302P | decreasing interaction
F33S | decreasing interaction
E280K | decreasing interaction
C26S | decreasing interaction

From IntAct's records for PubMed 15930137
